Paper PMC9909426

Biological target: Orange Carotenoid Protein variant OCP-W288_BTA (Synechocystis sp. PCC 6803 OCP with Trp288 replaced by 3-benzothienyl-L-alanine) (Synechocystis sp. PCC 6803) (UniProt P74102)
Experiment: SEC; preparative SEC, Superdex 200 Increase 10/300, after IMAC and HIC; pink, earlier eluting fraction OCP-W288_BTA(P)

**Q.** “Orange Carotenoid Protein variant OCP-W288_BTA (Synechocystis sp. PCC 6803 OCP with Trp288 replaced by 3-benzothienyl-L-alanine) (from UniProt P74102 1-317) (natural protein)” was tested. Which stoichiometry N did it give?
**A.** Its stoichiometry N is 2.
